Test results reported in patent US20200129634A1.
Blank lines part the entries; values can stand above or below the binder they belong to. Non-standard residues stand in square brackets, D forms with d. No end group written: not given here.

Columns and labels:
D88 (D34(A1K)) = assay: RP-HPLC temperature profiling (0.25% B/min gradient), Mix 2, self-association relative to RC
[1] = molecular target: D85 (D84K3OrnK7OrnK11OrnK18OrnK22OrnK26Orn); assay: RP-HPLC temperature profiling (0.25% B/min gradient), Mix 1, self-association relative to RC
[2] = molecular target: D106 (D88K3DprK7DprK14DprK15DprK22DprK26Dpr); assay: RP-HPLC temperature profiling (0.25% B/min gradient), Mix 4, self-association relative to RC
human serum proteins = assay: cell-based or functional assay
D37 [3] = assay: RP-HPLC temperature profiling (0.25% B/min gradient), control AMP, self-association relative to RC
D37 [4] = assay: RP-HPLC temperature profiling 5-77 C, pH 2, self-association (dimerization/oligomerization) relative to random coil control RC
D38 = assay: as above
D103 (D34(A1K)K26S) = assay: RP-HPLC temperature profiling (0.25% B/min gradient), Mix 2, self-association relative to RC
[5] = molecular target: D105 (D84K3DprK7DprK11DprK18DprK22DprK26Dpr); assay: RP-HPLC temperature profiling (0.25% B/min gradient), Mix 4, self-association relative to RC
[6] = molecular target: D105 (D84K3DprK7DprK11DprK18DprK22DprK26Dpr); assay: RP-HPLC temperature profiling (0.25% B/min gradient), Mix 1, self-association relative to RC
[7] = molecular target: D87 (D84K3ArgK7ArgK11ArgK18ArgK22ArgK26Arg); assay: as above
D101 (D33(A1K)K26S) = assay: RP-HPLC temperature profiling (0.25% B/min gradient), Mix 2, self-association relative to RC
D39 = assay: RP-HPLC temperature profiling 5-77 C, pH 2, self-association (dimerization/oligomerization) relative to random coil control RC
D40 = assay: as above

PA (self-association parameter) (D88 (D34(A1K))): 6.9 min
B1: D88 (D34(A1K)) (peptide)
peptide: Ac-KLKSLLKTLSAAKKKKLATLLKALSK-NH2
modifications: not fully specified; printed as Ac-KL(Lys)SLL(Lys)TLSAAK(Lys)(Lys)KLATLL(Lys)ALS(Lys)-amide; also: D-enantiomeric residues, extent not given here

PA (self-association parameter) [1]: 2.9 min
B2: D85 (D84K3OrnK7OrnK11OrnK18OrnK22OrnK26Orn) (peptide)
peptide: Ac-KLXSLLXTLSXAKAAKLXTLLXALSX-NH2
modifications: not fully specified (some residues); printed as Ac-KL(Orn)SLL(Orn)TLS(Orn)AKAAKL(Orn)TLL(Orn)ALS(Orn)-amide

PA (self-association parameter) [2]: 2.5 min
B3: D106 (D88K3DprK7DprK14DprK15DprK22DprK26Dpr) (peptide)
peptide: Ac-KLXSLLXTLSAAKXXKLATLLXALSX-NH2
modifications: not fully specified (some residues); printed as Ac-KL(Dpr)SLL(Dpr)TLSAAK(Dpr)(Dpr)KLATLL(Dpr)ALs(Dpr)-amide

MIC against A. baumannii strain 649 in 25% human serum (no serum: 2.9) (human serum proteins): > 92.8 µM
PA (self-association parameter) (D37 [3]): 37 min
PA (self-association parameter) (D37 [4]): 18.5 min
B4: D37 (peptide)
peptide: [dA][dL][dK][dS][dL][dL][dK][dT][dL][dS][dK][dA][dA][dA][dA][dA][dL][dK][dT][dL][dL][dK][dA][dL][dS][dK]-NH2
modifications: N-terminus assumed
SMILES: CC(C)C[C@@H](NC(=O)[C@@H](C)N)C(=O)N[C@H](CCCCN)C(=O)N[C@H](CO)C(=O)N[C@H](CC(C)C)C(=O)N[C@H](CC(C)C)C(=O)N[C@H](CCCCN)C(=O)N[C@@H](C(=O)N[C@H](CC(C)C)C(=O)N[C@H](CO)C(=O)N[C@H](CCCCN)C(=O)N[C@H](C)C(=O)N[C@H](C)C(=O)N[C@H](C)C(=O)N[C@H](C)C(=O)N[C@H](C)C(=O)N[C@H](CC(C)C)C(=O)N[C@H](CCCCN)C(=O)N[C@@H](C(=O)N[C@H](CC(C)C)C(=O)N[C@H](CC(C)C)C(=O)N[C@H](CCCCN)C(=O)N[C@H](C)C(=O)N[C@H](CC(C)C)C(=O)N[C@H](CO)C(=O)N[C@H](CCCCN)C(N)=O)[C@H](C)O)[C@H](C)O

MIC against A. baumannii strain 649 in 25% human serum (no serum: 0.7) (human serum proteins): > 92.8 µM
PA (self-association parameter) (D38): 19.5 min
B5: D38 (peptide)
peptide: [dA][dL][dK][dS][dL][dL][dK][dT][dL][dS][dA][dA][dA][dK][dK][dA][dL][dA][dT][dL][dL][dK][dA][dL][dS][dK]-NH2
modifications: N-terminus assumed
SMILES: CC(C)C[C@@H](NC(=O)[C@@H](C)N)C(=O)N[C@H](CCCCN)C(=O)N[C@H](CO)C(=O)N[C@H](CC(C)C)C(=O)N[C@H](CC(C)C)C(=O)N[C@H](CCCCN)C(=O)N[C@@H](C(=O)N[C@H](CC(C)C)C(=O)N[C@H](CO)C(=O)N[C@H](C)C(=O)N[C@H](C)C(=O)N[C@H](C)C(=O)N[C@H](CCCCN)C(=O)N[C@H](CCCCN)C(=O)N[C@H](C)C(=O)N[C@H](CC(C)C)C(=O)N[C@H](C)C(=O)N[C@@H](C(=O)N[C@H](CC(C)C)C(=O)N[C@H](CC(C)C)C(=O)N[C@H](CCCCN)C(=O)N[C@H](C)C(=O)N[C@H](CC(C)C)C(=O)N[C@H](CO)C(=O)N[C@H](CCCCN)C(N)=O)[C@H](C)O)[C@H](C)O

PA (self-association parameter) (D103 (D34(A1K)K26S)): 7.2 min
Binder: Ac-KLKSLLKTLSAAKKKKLATLLKALSS-NH2 (not fully specified; also: D-enantiomeric residues, extent not given here) [D103 (D34(A1K)K26S)]

PA (self-association parameter) [5]: 2.8 min
PA (self-association parameter) [6]: 2.8 min
B6: D105 (D84K3DprK7DprK11DprK18DprK22DprK26Dpr) (peptide)
peptide: Ac-KLXSLLXTLSXAKAAKLXTLLXALSX-NH2
modifications: not fully specified (some residues); printed as Ac-KL(Dpr)SLL(Dpr)TLS(Dpr)AKAAKL(Dpr)TLL(Dpr)ALS(Dpr)-amide

PA (self-association parameter) [7]: 3.4 min
B7: D87 (D84K3ArgK7ArgK11ArgK18ArgK22ArgK26Arg) (peptide)
peptide: Ac-KLRSLLRTLSRAKAAKLRTLLRALSR-NH2
modifications: not fully specified; printed as Ac-KL(Arg)SLL(Arg)TLS(Arg)AKAAKL(Arg)TLL(Arg)ALs(Arg)-amide; also: D-enantiomeric residues, extent not given here

PA (self-association parameter) (D101 (D33(A1K)K26S)): 7.2 min
Binder: Ac-KLKSLLKTLSKAKAAKLKTLLKALSS-NH2 (not fully specified; also: D-enantiomeric residues, extent not given here) [D101 (D33(A1K)K26S)]

MIC against A. baumannii strain 649 in 25% human serum (no serum: 1.4) (human serum proteins): > 92.8 µM
PA (self-association parameter) (D39): 18.5 min
B8: D39 (peptide)
peptide: [dA][dL][dK][dS][dL][dL][dA][dT][dL][dS][dK][dA][dA][dK][dK][dA][dL][dK][dT][dL][dL][dA][dA][dL][dS][dK]-NH2
modifications: N-terminus assumed
SMILES: CC(C)C[C@@H](NC(=O)[C@@H](C)N)C(=O)N[C@H](CCCCN)C(=O)N[C@H](CO)C(=O)N[C@H](CC(C)C)C(=O)N[C@H](CC(C)C)C(=O)N[C@H](C)C(=O)N[C@@H](C(=O)N[C@H](CC(C)C)C(=O)N[C@H](CO)C(=O)N[C@H](CCCCN)C(=O)N[C@H](C)C(=O)N[C@H](C)C(=O)N[C@H](CCCCN)C(=O)N[C@H](CCCCN)C(=O)N[C@H](C)C(=O)N[C@H](CC(C)C)C(=O)N[C@H](CCCCN)C(=O)N[C@@H](C(=O)N[C@H](CC(C)C)C(=O)N[C@H](CC(C)C)C(=O)N[C@H](C)C(=O)N[C@H](C)C(=O)N[C@H](CC(C)C)C(=O)N[C@H](CO)C(=O)N[C@H](CCCCN)C(N)=O)[C@H](C)O)[C@H](C)O

MIC against A. baumannii strain 649 in 25% human serum (no serum: 2.9) (human serum proteins): > 92.8 µM
PA (self-association parameter) (D40): 18.7 min
B9: D40 (peptide)
peptide: [dA][dL][dA][dS][dL][dL][dK][dT][dL][dS][dK][dA][dA][dK][dK][dA][dL][dK][dT][dL][dL][dK][dA][dL][dS][dA]-NH2
modifications: N-terminus assumed
SMILES: CC(C)C[C@@H](NC(=O)[C@@H](C)N)C(=O)N[C@H](C)C(=O)N[C@H](CO)C(=O)N[C@H](CC(C)C)C(=O)N[C@H](CC(C)C)C(=O)N[C@H](CCCCN)C(=O)N[C@@H](C(=O)N[C@H](CC(C)C)C(=O)N[C@H](CO)C(=O)N[C@H](CCCCN)C(=O)N[C@H](C)C(=O)N[C@H](C)C(=O)N[C@H](CCCCN)C(=O)N[C@H](CCCCN)C(=O)N[C@H](C)C(=O)N[C@H](CC(C)C)C(=O)N[C@H](CCCCN)C(=O)N[C@@H](C(=O)N[C@H](CC(C)C)C(=O)N[C@H](CC(C)C)C(=O)N[C@H](CCCCN)C(=O)N[C@H](C)C(=O)N[C@H](CC(C)C)C(=O)N[C@H](CO)C(=O)N[C@H](C)C(N)=O)[C@H](C)O)[C@H](C)O
